Biological target: Rabbit polymeric immunoglobulin receptor (pIgR), intact, expressed in transfected MDCK cells (pWe) (rabbit) (UniProt P01832)
Assay: cell-based or functional assay

Chain of UniProt P01832 (P01832 19-773): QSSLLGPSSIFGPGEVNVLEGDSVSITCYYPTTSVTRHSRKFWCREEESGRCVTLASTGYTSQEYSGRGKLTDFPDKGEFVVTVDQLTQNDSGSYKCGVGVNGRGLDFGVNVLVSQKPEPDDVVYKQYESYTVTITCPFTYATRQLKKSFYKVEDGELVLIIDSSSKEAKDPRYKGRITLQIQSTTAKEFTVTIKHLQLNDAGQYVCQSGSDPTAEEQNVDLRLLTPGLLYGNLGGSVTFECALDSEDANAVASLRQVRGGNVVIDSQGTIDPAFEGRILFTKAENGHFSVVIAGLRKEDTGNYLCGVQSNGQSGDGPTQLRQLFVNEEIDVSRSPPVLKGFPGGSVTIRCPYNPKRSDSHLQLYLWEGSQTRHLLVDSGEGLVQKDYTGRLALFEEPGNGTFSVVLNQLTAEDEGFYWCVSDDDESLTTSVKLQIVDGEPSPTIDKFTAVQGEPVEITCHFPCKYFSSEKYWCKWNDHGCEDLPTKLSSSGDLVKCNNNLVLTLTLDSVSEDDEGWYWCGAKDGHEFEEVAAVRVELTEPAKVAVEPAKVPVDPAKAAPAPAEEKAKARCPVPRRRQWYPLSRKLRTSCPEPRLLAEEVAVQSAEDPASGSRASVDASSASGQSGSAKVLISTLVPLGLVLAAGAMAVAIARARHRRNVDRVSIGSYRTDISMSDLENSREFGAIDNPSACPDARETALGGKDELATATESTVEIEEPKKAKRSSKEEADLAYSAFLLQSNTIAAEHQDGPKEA

- percent of ligand transcytosed from the apical to the basolateral surface: 5 to 6%
Substance: Radio-iodinated IgA (antibody)

Source: US6340743
